# In paper PMC10706272, “Improving the Thermostability of Thermomyces lanuginosus Lipase by Restricting the Flexibility of N-Terminus and C-Terminus Simultaneously via the 25-Loop Substitutions” (International Journal of Molecular Sciences, 2023):
# B1: TLL (Thermomyces lanuginosus lipase) (Thermomyces lanuginosus) (protein)
# chain: EVSQDLFNQFNLFAQYSAAAYCGKNNDAPAGTNITCTGNACPEVEKADATFLYSFEDSGVGDVTGFLALDNTNKLIVLSFRGSRSIENWIGNLNFDLKEINDICSGCRGHDGFTSSWRSVADTLRQKVEDAVREHPDYRVVFTGHSLGGALATVAGADLRGNGYDIDVFSYGAPRVGNRAFAEFLTVQTGGTLYRITHTNDIVPRLPPREFGYSHSSPEYWIKSGTLVPVTRNDIVKIEGIDATGGNNQPNIPDIPAHLWYFGLIGTCL
# Substrate: CCCCCCCCCCCCCCCC(=O)Oc1ccc([N+](=O)[O-])cc1
# Test: initial-rate hydrolysis of pNPP, p-nitrophenol release, Michaelis-Menten fit
# Type: biochemical, Thermomyces lanuginosus
# Settings: 37 °C, pH 9.0, Tris-HCl 100 mM, apparent Km, pNPP 0.25-10 mM
# Excerpt: initial-rate hydrolysis of pNPP, p-nitrophenol release, Michaelis-Menten fit on TLL (Thermomyces lanuginosus lipase)
protein,measurement,value
B1,Km,220 ± 50 µM
same,Vmax,402 µmol/min/mg
same,kcat,594 ± 4 s⁻¹
same,kcat/Km,2.72e+06 ± 54000 M⁻¹ s⁻¹
